Results reported in patent US20150190490A1 (ONCOTHERAPY SCIENCE, published 2015).

What was measured:
HLA-DR15 (DRB1*15:02) = biological target: T1, HLA-DR15 (DRB1*15:02) (human); test: concluded from IFN-gamma ELISPOT restriction analysis (peptide-pulsed L-DR15 cells, blocking mAbs)
T1 construct: whole, on cells; MHC class II molecule on mouse L-cell transfectants (L-DR15) or donor PBMCs; also called L-DR15
Protocol: (§1) On day 5, the DCs were cultured in the presence of the recombinant CDCA1 (50 micro g/ml) and OK432. The protein-loaded mature DCs were harvested on day 7, washed and used as stimulator in IFN-gamma ELISPOT assays. To determine restriction HLA molecules involved in antigen presentation, blocking of antigen-induced IFN-gamma production was investigated by adding anti-HLA-DR mAb (L243, Biolegend), anti-HLA-DP mAb, (B7/21, abcam), anti-human HLA-DQ mAb (SPV-L3, abcam), or anti-HLA class I mAb, (W6/32, abcam). All mAbs were used at a final concentration of 5 micro g/ml. All assessments of IFN-gamma ELISPOT assays were carried out in duplicate or triplicate, and results corresponded to mean values.
(§2) The immune responses of T-cells to PBMC, L-cells, and murine BM-DC pulsed with peptides (10 micro g/mL) or CDCA1 proteins-loaded human DCs (50 micro g/mL) were assessed by IFN-gamma ELISPOT assays (BD Biosciences, San Jose, Calif.) according to manufacturer's instructions and described previously (Zarour H M et al., Cancer Res 2000; 60:4946-52.). In briefly, peptide-pulsed PBMCs (3×10⁴/well), L-cells (5×10⁴/well), T2 cells (2×10⁴/well), C1R-A24 cells (2×10⁴/well), bone marrow-derived DCs (BM-DCs, 2×10⁴/well), or protein-loaded DCs (5×10³/well) were seeded in triplicate or duplicate in the ELISPOT plates as APCs or target cells. […] After incubation for 18 h, spot numbers were counted. […]

HLA-DR4 (DRB1*04:05) = biological target: T2, HLA-DR4 (DRB1*04:05) (human); test: concluded from IFN-gamma ELISPOT restriction analysis (peptide-pulsed L-DR4 cells, blocking mAbs)
T2 construct: whole, on cells; MHC class II molecule on mouse L-cell transfectants (L-DR4), donor PBMCs or DCs; also called L-DR4; L-DR0405
Protocol: as §1, §2

- binding result (HLA-DR15 (DRB1*15:02)): binds
- binding result (HLA-DR4 (DRB1*04:05)): binds
B1: CDCA1 (55-78) long peptide (peptide)
peptide: IVYGIRLEHFYMMPVNSEVMYPHL
notes: Synthetic long peptide (purity >90%), pulsed onto antigen presenting cells; also called CDCA1 (55-78) LP; CDCA1 (55-78)-LP
